Experimental data: a protein production outcome set (Wang et al. 2014)

Assay: label from the status in PepcDB records

Row | Sequence | protein production
1 | MEINNNISSTIPLVDIVLVFCYVFSFYVIGPLTSSVIIALPLMFCCLYKKKWGYCLLLELKNSFIVRIFISQWLLIGIAVFYSCLHLTMELEYIKVLIAQMFHFICGIFIIIYLKYQKQYTTLKIEQTIIWAFLVQSIIQLIAMSIPSFAHFILYFSRAHDLQDAYGGGVRGLALSSGVGWSLGLAYGLIYIVFVKRYLLSGVNMKSTLIGILLLMGTIFAGRTGFVGACLGGIFFIISNQLSYRTKLMFVLKILLGVILFFLCIYFLFPSMTEHLVDNVFPFAFEPFYKMYYNDEFSTSSTDRLEEMWRVSTSVEEILYGSGSFIDTITGAYYKHIDIGILRNLFYWGIGGYILLIIYQLILIAPIKYNKIQRVSHFNMFFYKLLIIVYLFLLECKAVTIGLNKMTFSVIFLIAYFYFDEIHSKKYIAELR | failed
2 | MEIRTLALKTPEGQPFTMWIYQHDQFTLFPDDRLWPLALIFPGGGFAGYSEREVEAVALKFIAKGYQAAVVKYNLTSDGPFYPTAATIGLAALSYVKRHAQELNADFDHVVVSGFSAGGHLVAVMTALGAQSEFLNNHGFEETKLVPFAQILSYPVIDLTMGFPTSQHEMMAVTTDESYWHAQELVTSQTPPTFIWATRTDELVPVVNSLVYLAALGEHNVPFESHIYAAGVHGLAFGDLADSRYHHPEDVVPRVQNWFPMALGWLRTLYASKNSTEILEHHHHHH | failed
3 | MEISSGGSGMATRARGVVRDGTRALVLAVVGLPGALVLYVLAVVSLLLVPLGVGIVTTPWVLAGVRGFADWRRVVAAEWCGVRIPSGYRPVPVDANPWGRCFRLLSDRATWRDLIWLQVDMTAGFVTALLPAALLFYPLEGFALAAGLWRVFTDGTYIGWWYAFVPVSGQASALAAGALGVVFLVASYHLTPSLLRVHFLLTRAVLAPGQGELAERVRVLTETRRAAVDTSAAELRRIERDLHDGAQARLVAMGMDLGTIEALIEKDPAKARELLARARKSSADALTELRDLVRGIHPPVLAERGLGDAVRALALRVPIASEVNVDFDGRRAAAPVESAAYFAVSEVLTNAVKHAGADRVWIDLRHSDGMLRIAVTDNGRGGARIGTGSGLAGIERRLGTFDGVLAVSSPAGGPTMVSLEIPCELS | failed
4 | MEIVQEGIAKIIVPEIPKTVSSDMPVFYNPRMRVNRDLAVLGLEYLCKKLGRPVKVADPLSASGIRAIRFLLETSCVEKAYANDISSKAIEIMKENFKLNNIPEDRYEIHGMEANFFLRKEWGFGFDYVDLDPFGTPVPFIESVALSMKRGGILSLTATDTAPLSGTYPKTCMRRYMARPLRNEFKHEVGIRILIKKVIELAAQYDIAMIPIFAYSHLHYFKLFFVKERGVEKVDKLIEQFGYIQYCFNCMNREVVTDLYKFKEKCPHCGSKFHIGGPLWIGKLWDEEFTNFLYEEAQKREEIEKETKRILKLIKEESQLQTVGFYVLSKLAEKVKLPAQPPIRIAVKFFNGVRTHFVGDGFRTNLSFEEVMKKMEELKEKQKEFLEKKKQG | not failed
5 | MEIVYVYVKKRSEFGKQCNFSDRQAELNIDISPNPELAALYVERNPVDTGIQCSASMSEHEANTERFEMENCGVNHVEGGWPKDVNPQELEQTIRFRKKVEKDENYINAVMQLGSIMEHCIKQNNAIDIYEEYFDDEEAVEVTEEAPSAKTINVFRDPQEIKRTATHLSWHPDGNKKLAVAYSCLQFQRSPMGMSHDSYIWDLENPNRPEIALKPSSPLITLEYNPKDSHVLLGGCYNGQIACWDTRKGSLVAELSTIEFSHRDPVYGTIWLQSKTGTECFSASTDGQVMWWDIRKISEPTEVVIMDITRKEQLENALGAISLEFESTLETPFQMGRGLGCILSRRPELKQQNEKLEGKPLTLPSHHRVPVRLGFYPCFPTNKRGLGDTCRSWLSPSSWAQGTKLRLSVLVANAVEPVTAWAAFTHMQSLHTQEHTVSTLGRFYFMYKQISKILTRTLTGASSVLKVCDDPLFCLRVQDTGCLIACGSELGTTTLLEVSSSLSTLQRNERNIASSIFERETRREKILEARHREMRLKEKGKAEGRDDDQKEEETALDLDELVNKAEEEFFEVIFAELKRKEAEALKKKPKPKKASIEVEGEDELEDIAGEEEESGIIMGEDTGEDDMDEKNEGGAP | failed
6 | MEKADIEAIFARSRFISAMNLEILDIDHAGSRFSVRMPLQDTYERGAPGTKQFHGGALAALIDVVGDFAIGMLVGGGVPTMNLRIDYLRPAVGDYVDGVAVVRKAGKSAAVVDIDILCPAGKLVAIGRGTYVPITGLEHHHHHH | failed
7 | MEKAMPESFVVRREAHLAAPPAAVFALMTDPEKILRWMGTEAEVEPEPGGLYLVNVTGARFARGSFREVVPVHRLAYSFGWDGSEVVPPGSSLVEIDLIEQGGGTLLRLTHSGLPSAEQCAGHEEGWAHYLGRLTEVAAGRDPGLEHHHHHH | failed
8 | MEKFLTTTYKELNSSMYKFSKGLTLVLFSLALSACSSSPEDNDIAAKTSPDELYSQARTSMELGNYSKAVRSLEALDSRFPFGPHKTQVQLDLIYAYYKMDDVASGIANIDRFIRLNPTHPNIDYVYYMRGLVNMQADSYLFHDMLNIDRTDRDPKNAQDAFKDFDRLIKTYPNSKYAADAQKRMLSLKNRLAKYSIQVAEYYIKMNAWSAAAVRAQSVLETYPGTPSTERALEIMAEAYGELGQNQLKQNVLMVMQANFPNNEILSN | failed
9 | MEKIERLRSAFDEAGIDGILLTNEHSRRYMANFTGTAGVVLISKKRAQFITDFRYVEQASKQAVGYEIVQHAGLIIDEVAKQVKELGIQKLGFEQDTLTYSSYSAHKEAIDAEFIPTSGLVEKLRLIKTDSEIKILKEAAQIADAAFEHILSFIRPGVSEIEVSNELEFFMRKQGATSSSFDIIVASGLRSALPHGVASEKVIETGDFVTLDFGAYYKGYCSDITRTIAVGEPSDKLKEIYNIVLEAQLRGVNGIKAGLTGREADALTRDYITEKGYGEYFGHSTGHGIGLEIHEAPGLAFRSDTVLEPGMAVTVEPGIYIPGIGGVRIEDDIIVTSEGNEVITKSPKELIIL | not failed
10 | MEKIGETMAKLGQNTRVNSDQLIQTILADPEVASFISQHHLSQEQINLSLSKFNQFLVERQKYQLKDPSYIAKGYQPILAMNEGYADVSYLETKELVEAQKQAAISERIQLVSLPKSYRHIHLSDIDVNNASRMEAFSAILDFVEQYPSAEQKGLYLYGDMGIGKSYLLAAMAHELSEKKGVSTTLLHFPSFAIDVKNAISNGSVKEEIDAVKNVPVLILDDIGAEQATSWVRDEVLQVILQYRMLEELPTFFTSNYSFADLERKWATIKGSDETWQAKRVMERVRYLAREFHLEGANRRLEHHHHHH | not failed
11 | MEKKEMEKLCQRCKQSYTDLSNETSSCRFHPSFFVCRRHDDQKRYYELKPDDPPYAAKFYDCCGAEDPNAPGVKDLACDLSAGYCLEPLLALHTATE | failed
12 | MEKLGQFIINHWQLWLAFVVVVFLIFINEILSQRKKAKEVSPQSLVDLMNNGNAIVIDIRDKESFKNGHIINSMNVNPDDFEQQKMSKYKDKPIILVCARGLQSPTLAMKIRNQGYQPLVLSGGIQAWQNADLPLVKGK | failed
13 | MEKNLLRSALKIFEKKDLSLLAYSGRSIFESKDSGLKPVVELFKRFDNLEGSLVIDKMVGKAAASFLLKMKPDHIHAKVISKPALKLMNEYGQSFSYDEKIPFVLGKDGKSMCPFEKLVLEMDDPEEIIRIVLSKFTSL | not failed
14 | MEKVVTLNHDLPLLHFPNSRKPFSIPSPILRISSFKRHKKRSCLASSSRLGFYTETKTVSESHGVIVDNSTIGRRLLGLAAAVSVAVSLSIFCDSPALAESLTIAFPVSRAREVIETMVEMFPLRSADAAYGKLKAMLSTLGDPFTRLITPKEYQSFRIGSDGNLQGVGLFINSEPRTGHLVSDQTHLETQISLVFGLFVHFLSMNPADRAGIHEGEELVEINGEKLDDVDSEAAAQKLRGRVGTFVTIKLKNVLFGTDSGIREVTVTAVSVRCVKLPRDYIKLSPISSAIIPHTTPDGRLAKTGYVKLTAFSQTAASDMENAVHEMENQDVQSYILDLRNNPLLAIPYQGGLVRAGLDVAQLWLDGDETLVYTIDREGVTSPINMINGHAVTHDPLVVLVNEGSASASEILAGALHDNGRAILVGNRTFGKGKIQSITELNDGSALFVTVAKYLSPSLHEIDQVGIAPDVQCTTGMIDSLTAEIVEKMNSSVPLLEADSCVMVAEHELEARRSNGTAS | failed
15 | MELFEFLLIKYGYIALILILTGGIVGLPIPDEVLLTLVGYYISLGKMSYVLALLASFLGATLGISISYFLGTKLGLPFLMKYGPKFHISHQKIDHAQALFRKYGPILLFIGYFLPGVRHVTGYLSGLSKCKFRTFSLYAYTGAFIWCLVFITLGHEIGNKWYIVEKYLFKSSFLLFLLILCVIGYFIVRNKRMEKNAEKK | failed
16 | MELFGSFAFFGGALFGGLGLLLYRALGLPWRLGYRHLIGALCLAVWLAVFWTRPYQPLGLLAVASAALWAMRRGYLPTWAAVLLTMAPLLLLKCGITTMTGMLGLSFATFRAVDVLLFAPRNERISPLDYCIYLFFPLTLLAGPMYRWRNFQADLKRGYEGVTLETWLAGLELLIFGVIQKFGVAEAIWRYGLNTLDAHDYSLTGVALNASLYSFYLFFDFAGYSSMAIGVGMLFGFTLPVNFRNPLASANPQDFWRRWHISLSEWLRDVVFMPIYKALSKTAFFGRHRLAAQNIGILATLLAMGVWNGLALHYVVSGLMFGAYSVGHNLLVQHARTRPALQAFLARRPVQWAGRALTLILAALALYVFSGRSPI | failed
17 | MELIVPILAAAYLAVLLVKTAAALWVVRGERLRPARSAVATPADVAILQPILGGDAHLQEVLAANVQALPQAQFIWLLDTDDGPGNAAADAVVAQYPQLRIARMLVPPAPPGINPKAWKLDYALPHIDAPVSLILDDDAHLGDRALSQLLLDLAHADVVTALPYYRDSATLAGRLLAQFVNNNAALTYLGWLPFAAPLTINGMCYAARTEQLRRWGGFTALLEQLTDDLAFATLVRDRGGRLWQSTAPVAMRTDMPDLRGYVRQMHRWMLFASILLGRQRLRVRSAIGVLQGLPPVLLLAMLVCACVQHTWPAALCVLIVLLARALLLCGVQWRVTGAVRHRLLLSLCAECLQPLHLLHAALVRTIRWRTRRYRVLPDGCFRAE | failed
18 | MELLCIDYLGKPLRLEGTMAGWQQLFWDNILVAQRPAQEQYEGDIQHHFQLTQGEHVLECCLEIALTWQPFQLQYQTKLNGELVAQGMRSEKDVERQTPYEAPKVERRFSVIGLVSLAMKALKSAKMIKVVMASASLAAYSWLFSFQFALALIGCLVFHEYGHVRAMKYFGMKTKGIYLVPFLGGLALSDEKINTRWQDVVISIMGPCFGFLLSLLLVGVYWVTDSPFWAALAVFNAFLNLFNLLPVLPLDGGHILKSVSFSMNSKMGVILCVLAILGGIALSYSLGLTLFGFLLLMGALDIVFEWRQRHHSHLLPLNRYAQMVSTIWYFALVSGLIAIIIGFASTGDTLLSLPLLILGT | failed
19 | MELLKLNRSVQGTGPGPGASLCRPGAPLLNSSSVGNLSCEPPRIRGAGTRELELAIRITLYAVIFLMSVGGNMLIIVVLGLSRRLRTVTNAFLLSLAVSDLLLAVACMPFTLLPNLMGTFIFGTVICKAVSYLMGVSVSVSTLSLVAIALERYSAICRPLQARVWQTRSHAARVIVATWLLSGLLMVPYPVYTVVQPVGPRVLQCVHRWPSARVRQTWSVLLLLLLFFIPGVVMAVAYGLISRELYLGLRFDGDSDSDSQSRVRNQGGLPGGAGPREQNLGEADVWRATGPAGVGGTEMKVRVRRKLEMELSWERRSGGDWAGDWGDSPFSLTAHPLCSGAVHQNGRCRPETGAVGEDSDGCYVQLPRSRPALELTALTAPGPGSGSRPTQAKLLAKKRVVRMLLVIVVLFFLCWLPVYSANTWRAFDGPGAHRALSGAPISFIHLLSYASACVNPLVYCFMHRRFRQACLETCARCCPRPPRARPRALPDEDPPTPSIASLSRLSYTTISTLGPG | failed
